The source of these data is IntAct's records for PubMed 21751375.

The target of one experiment is ctnb1_mouse Ctnnb1 (UniProt Q02248).
The target of the next experiment is ctnb1_human CTNNB1 (UniProt P35222).
ctnb1_human CTNNB1, sequence (P35222 whole entry): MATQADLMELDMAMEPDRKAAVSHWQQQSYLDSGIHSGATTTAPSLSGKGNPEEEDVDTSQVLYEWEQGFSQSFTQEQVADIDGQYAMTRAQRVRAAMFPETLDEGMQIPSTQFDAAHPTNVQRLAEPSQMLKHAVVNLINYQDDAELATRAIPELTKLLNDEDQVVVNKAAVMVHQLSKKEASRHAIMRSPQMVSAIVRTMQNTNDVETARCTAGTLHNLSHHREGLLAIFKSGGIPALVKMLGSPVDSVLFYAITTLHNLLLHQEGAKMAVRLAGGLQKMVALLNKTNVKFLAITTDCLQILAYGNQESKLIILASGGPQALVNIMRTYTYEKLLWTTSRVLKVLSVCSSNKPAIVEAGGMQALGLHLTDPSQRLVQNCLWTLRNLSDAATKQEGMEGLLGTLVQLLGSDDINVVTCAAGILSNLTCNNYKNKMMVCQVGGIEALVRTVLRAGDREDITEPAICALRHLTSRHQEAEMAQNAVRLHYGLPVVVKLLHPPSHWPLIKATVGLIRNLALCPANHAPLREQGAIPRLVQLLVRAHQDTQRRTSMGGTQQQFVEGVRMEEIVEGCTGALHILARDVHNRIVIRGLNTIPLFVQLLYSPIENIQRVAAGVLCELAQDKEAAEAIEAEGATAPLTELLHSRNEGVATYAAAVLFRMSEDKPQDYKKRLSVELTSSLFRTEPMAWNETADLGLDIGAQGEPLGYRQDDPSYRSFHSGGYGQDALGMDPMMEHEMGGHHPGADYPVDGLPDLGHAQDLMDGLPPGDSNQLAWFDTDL

ctnb1_mouse Ctnnb1, sequence (Q02248 whole entry): as the sequence (P35222 whole entry) above, with P706A counted along it

For “Histone lysine acetyltransferase CREBBP (Mus musculus), P45481 S92A”, the “effect of a mutation on the interaction” value with ctnb1_mouse Ctnnb1 is reported as “decreasing interaction”.

With “CREB-binding protein (Homo sapiens), Q92793 S92A”, the “effect of a mutation on the interaction” value in the experiment with ctnb1_human CTNNB1 is “decreasing interaction”.
